T1: Axl protein (human, UniProt P30530 26-451)
T1 construct: extracellular domain; also called human Axl; hAxl
T1 sequence (looked up): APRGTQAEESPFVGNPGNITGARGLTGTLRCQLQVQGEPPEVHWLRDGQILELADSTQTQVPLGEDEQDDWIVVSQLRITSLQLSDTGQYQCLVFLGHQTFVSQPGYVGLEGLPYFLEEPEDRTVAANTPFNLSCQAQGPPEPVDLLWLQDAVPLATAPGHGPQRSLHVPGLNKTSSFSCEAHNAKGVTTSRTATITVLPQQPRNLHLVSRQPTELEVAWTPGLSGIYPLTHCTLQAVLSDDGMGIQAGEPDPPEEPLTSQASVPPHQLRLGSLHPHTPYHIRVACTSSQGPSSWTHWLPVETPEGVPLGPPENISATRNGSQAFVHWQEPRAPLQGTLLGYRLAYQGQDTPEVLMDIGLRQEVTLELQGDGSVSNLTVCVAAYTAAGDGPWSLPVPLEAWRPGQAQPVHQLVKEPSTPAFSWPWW


How the values were obtained:
[1] = molecular target: T1, Axl protein; assay: ELISA, 1:3 dilution, pH 6.0 over pH 7.4
[2] = molecular target: T1, Axl protein; assay: ELISA, 1:9 dilution, pH 6.0 over pH 7.4

Binder	Affinity ELISA CPE mutant ratio (1:3, pH 6.0/7.4) [1] [ratio]	Affinity ELISA CPE mutant ratio (1:9, pH 6.0/7.4) [2] [ratio]
LC-A051N (antibody, V domains shown) VH: EVQLVQSGAEVKKPGATVKISCKVSGYSFTGHTMNWIRQPPGKGLEWIGLIKPSNGGTSYNQKFKGRVTISADKSISTAYLQWSSLKASDTAMYYCAHGHYESYFAMDYWGQGTLVTVSS VL: DIQMTQSPSSLSASVGDRVTITCKASQDVSSAVAWYQQKPGQAPRLLIYWNSTRHTGVPSRFSGSGSGTEFTLTISSLQPDDFATYYCQEHFSTPLTFGQGTKVEIK	1.41	2.2
LC-L096R (antibody, V domains shown) VH: EVQLVQSGAEVKKPGATVKISCKVSGYSFTGHTMNWIRQPPGKGLEWIGLIKPSNGGTSYNQKFKGRVTISADKSISTAYLQWSSLKASDTAMYYCAHGHYESYFAMDYWGQGTLVTVSS VL: DIQMTQSPSSLSASVGDRVTITCKASQDVSSAVAWYQQKPGQAPRLLIYWASTRHTGVPSRFSGSGSGTEFTLTISSLQPDDFATYYCQEHFSTPRTFGQGTKVEIK	2.88	2.18
LC-H091Q (antibody, V domains shown) VH: EVQLVQSGAEVKKPGATVKISCKVSGYSFTGHTMNWIRQPPGKGLEWIGLIKPSNGGTSYNQKFKGRVTISADKSISTAYLQWSSLKASDTAMYYCAHGHYESYFAMDYWGQGTLVTVSS VL: DIQMTQSPSSLSASVGDRVTITCKASQDVSSAVAWYQQKPGQAPRLLIYWASTRHTGVPSRFSGSGSGTEFTLTISSLQPDDFATYYCQEQFSTPLTFGQGTKVEIK	1.77	2.01
LC-P095C (antibody, V domains shown) VH: EVQLVQSGAEVKKPGATVKISCKVSGYSFTGHTMNWIRQPPGKGLEWIGLIKPSNGGTSYNQKFKGRVTISADKSISTAYLQWSSLKASDTAMYYCAHGHYESYFAMDYWGQGTLVTVSS VL: DIQMTQSPSSLSASVGDRVTITCKASQDVSSAVAWYQQKPGQAPRLLIYWASTRHTGVPSRFSGSGSGTEFTLTISSLQPDDFATYYCQEHFSTCLTFGQGTKVEIK	2.35	2.63
LC-P095S (antibody, V domains shown) VH: EVQLVQSGAEVKKPGATVKISCKVSGYSFTGHTMNWIRQPPGKGLEWIGLIKPSNGGTSYNQKFKGRVTISADKSISTAYLQWSSLKASDTAMYYCAHGHYESYFAMDYWGQGTLVTVSS VL: DIQMTQSPSSLSASVGDRVTITCKASQDVSSAVAWYQQKPGQAPRLLIYWASTRHTGVPSRFSGSGSGTEFTLTISSLQPDDFATYYCQEHFSTSLTFGQGTKVEIK	2.84	3.51
LC-A051P (antibody, V domains shown) VH: EVQLVQSGAEVKKPGATVKISCKVSGYSFTGHTMNWIRQPPGKGLEWIGLIKPSNGGTSYNQKFKGRVTISADKSISTAYLQWSSLKASDTAMYYCAHGHYESYFAMDYWGQGTLVTVSS VL: DIQMTQSPSSLSASVGDRVTITCKASQDVSSAVAWYQQKPGQAPRLLIYWPSTRHTGVPSRFSGSGSGTEFTLTISSLQPDDFATYYCQEHFSTPLTFGQGTKVEIK	1.92	1.57
LC-L096G (antibody, V domains shown) VH: EVQLVQSGAEVKKPGATVKISCKVSGYSFTGHTMNWIRQPPGKGLEWIGLIKPSNGGTSYNQKFKGRVTISADKSISTAYLQWSSLKASDTAMYYCAHGHYESYFAMDYWGQGTLVTVSS VL: DIQMTQSPSSLSASVGDRVTITCKASQDVSSAVAWYQQKPGQAPRLLIYWASTRHTGVPSRFSGSGSGTEFTLTISSLQPDDFATYYCQEHFSTPGTFGQGTKVEIK	2.17	2.44
LC-H091L (antibody, V domains shown) VH: EVQLVQSGAEVKKPGATVKISCKVSGYSFTGHTMNWIRQPPGKGLEWIGLIKPSNGGTSYNQKFKGRVTISADKSISTAYLQWSSLKASDTAMYYCAHGHYESYFAMDYWGQGTLVTVSS VL: DIQMTQSPSSLSASVGDRVTITCKASQDVSSAVAWYQQKPGQAPRLLIYWASTRHTGVPSRFSGSGSGTEFTLTISSLQPDDFATYYCQELFSTPLTFGQGTKVEIK	2.8	2.08
LC-P095H (antibody, V domains shown) VH: EVQLVQSGAEVKKPGATVKISCKVSGYSFTGHTMNWIRQPPGKGLEWIGLIKPSNGGTSYNQKFKGRVTISADKSISTAYLQWSSLKASDTAMYYCAHGHYESYFAMDYWGQGTLVTVSS VL: DIQMTQSPSSLSASVGDRVTITCKASQDVSSAVAWYQQKPGQAPRLLIYWASTRHTGVPSRFSGSGSGTEFTLTISSLQPDDFATYYCQEHFSTHLTFGQGTKVEIK	2.5	2.75
LC-P095K (antibody, V domains shown) VH: EVQLVQSGAEVKKPGATVKISCKVSGYSFTGHTMNWIRQPPGKGLEWIGLIKPSNGGTSYNQKFKGRVTISADKSISTAYLQWSSLKASDTAMYYCAHGHYESYFAMDYWGQGTLVTVSS VL: DIQMTQSPSSLSASVGDRVTITCKASQDVSSAVAWYQQKPGQAPRLLIYWASTRHTGVPSRFSGSGSGTEFTLTISSLQPDDFATYYCQEHFSTKLTFGQGTKVEIK	3.84	3.47
LC-P095T (antibody, V domains shown) VH: EVQLVQSGAEVKKPGATVKISCKVSGYSFTGHTMNWIRQPPGKGLEWIGLIKPSNGGTSYNQKFKGRVTISADKSISTAYLQWSSLKASDTAMYYCAHGHYESYFAMDYWGQGTLVTVSS VL: DIQMTQSPSSLSASVGDRVTITCKASQDVSSAVAWYQQKPGQAPRLLIYWASTRHTGVPSRFSGSGSGTEFTLTISSLQPDDFATYYCQEHFSTTLTFGQGTKVEIK	2.5	2.09
LC-H091C (antibody, V domains shown) VH: EVQLVQSGAEVKKPGATVKISCKVSGYSFTGHTMNWIRQPPGKGLEWIGLIKPSNGGTSYNQKFKGRVTISADKSISTAYLQWSSLKASDTAMYYCAHGHYESYFAMDYWGQGTLVTVSS VL: DIQMTQSPSSLSASVGDRVTITCKASQDVSSAVAWYQQKPGQAPRLLIYWASTRHTGVPSRFSGSGSGTEFTLTISSLQPDDFATYYCQECFSTPLTFGQGTKVEIK	4	3.02
LC-H091I (antibody, V domains shown) VH: EVQLVQSGAEVKKPGATVKISCKVSGYSFTGHTMNWIRQPPGKGLEWIGLIKPSNGGTSYNQKFKGRVTISADKSISTAYLQWSSLKASDTAMYYCAHGHYESYFAMDYWGQGTLVTVSS VL: DIQMTQSPSSLSASVGDRVTITCKASQDVSSAVAWYQQKPGQAPRLLIYWASTRHTGVPSRFSGSGSGTEFTLTISSLQPDDFATYYCQEIFSTPLTFGQGTKVEIK	1.55	2.15
LC-P095A (antibody, V domains shown) VH: EVQLVQSGAEVKKPGATVKISCKVSGYSFTGHTMNWIRQPPGKGLEWIGLIKPSNGGTSYNQKFKGRVTISADKSISTAYLQWSSLKASDTAMYYCAHGHYESYFAMDYWGQGTLVTVSS VL: DIQMTQSPSSLSASVGDRVTITCKASQDVSSAVAWYQQKPGQAPRLLIYWASTRHTGVPSRFSGSGSGTEFTLTISSLQPDDFATYYCQEHFSTALTFGQGTKVEIK	2.52	2.99
LC-P095E (antibody, V domains shown) VH: EVQLVQSGAEVKKPGATVKISCKVSGYSFTGHTMNWIRQPPGKGLEWIGLIKPSNGGTSYNQKFKGRVTISADKSISTAYLQWSSLKASDTAMYYCAHGHYESYFAMDYWGQGTLVTVSS VL: DIQMTQSPSSLSASVGDRVTITCKASQDVSSAVAWYQQKPGQAPRLLIYWASTRHTGVPSRFSGSGSGTEFTLTISSLQPDDFATYYCQEHFSTELTFGQGTKVEIK	7.12	7.51
LC-H091F (antibody, V domains shown) VH: EVQLVQSGAEVKKPGATVKISCKVSGYSFTGHTMNWIRQPPGKGLEWIGLIKPSNGGTSYNQKFKGRVTISADKSISTAYLQWSSLKASDTAMYYCAHGHYESYFAMDYWGQGTLVTVSS VL: DIQMTQSPSSLSASVGDRVTITCKASQDVSSAVAWYQQKPGQAPRLLIYWASTRHTGVPSRFSGSGSGTEFTLTISSLQPDDFATYYCQEFFSTPLTFGQGTKVEIK	1.6	2.12
LC-P095D (antibody, V domains shown) VH: EVQLVQSGAEVKKPGATVKISCKVSGYSFTGHTMNWIRQPPGKGLEWIGLIKPSNGGTSYNQKFKGRVTISADKSISTAYLQWSSLKASDTAMYYCAHGHYESYFAMDYWGQGTLVTVSS VL: DIQMTQSPSSLSASVGDRVTITCKASQDVSSAVAWYQQKPGQAPRLLIYWASTRHTGVPSRFSGSGSGTEFTLTISSLQPDDFATYYCQEHFSTDLTFGQGTKVEIK	3.95	2.89

Source: patent publication US20190177417A1 (BIOATLA, published 2019)
